Results published in the DeepSol protein solubility set.

assay: soluble on expression in E. coli; label from the status in PepcDB or PDB records

Row | Sequence | soluble on expression in E. coli
1 | MGSDKIHHHHHHMAGTCGLTLGKYAPLHKGHQLVIETALAEMDEVLVMIYECPEVTAIPLTVRANWLRKIYPQILVIEAWDGPTEVGDTSEIKKMHEDYILKQLESKKITHFYCSEFYGEHVSQALGAVNRLVDCDRKTFPISGTQVRTDTYAMREYLHPDVYRDLIANIVFLGAPSTGKTTIASQLAKEYNTVWMPEYGREYWEKNQINRRLSLLQLVEIAKGHLEREEALLLQANQYLFTDTNALTTYQFSLYYHKTVAPELVQLAHQAMSRYDLVFLCDLDIPYDDTWDRSGEANRSIFQKQIESDLIVRKIPFFRLSGDLMTRISIVKKVLYYYQKYASLGELFFNKLIL | not soluble
2 | MSDRIASEKLRSKLMSADEAAQFVNHGDKVGFSGFTGAGYPKALPTAIANRAKEAHGAGNDYAIDLFTGASTAPDCDGVLAEADAIRWRMPYASDPIMRNKINSGSMGYSDIHLSHSGQQVEEGFFGQLNVAVIEITRITEEGYIIPSSSVGNNVEWLNAAEKVILEVNSWQSEDLEGMHDIWSVPALPNRIAVPINKPGDRIGKTYIEFDTDKVVAVVETNTADRNAPFKPVDDISKKIAGNFLDFLESEVAAGRLSYDGYIMQSGVGNVPNAVMAGLLESKFENIQAYTEVIQDGMVDLIDAGKMTVASATSFSLSPEYAEKMNNEAKRYRESIILRPQQISNHPEVIRRVGLIATNGLIEADIYGNVNSTNVSGSRVMNGIGGSGDFTRNGYISSFITPSEAKGGAISAIVPFASHIDHTEHDVMVVISEYGYADLRGLAPRERVAKMIGLAHPDYRPLLEEYYARATSGDNKYMQTPHDLATAFDFHINLAKNGSMKA | soluble
3 | MQLNKVLKGLMLALPVLAVAACSSNKSANNDQSGMGAGTGTENGSNLSSEEQARLQMQELQKNNIVYFGFDKYDIGSDFAQMLDAHAAFLRSNPSDKVVVEGHADERGTPEYNIALGERRASAVKMYLQGKGVSADQISIVSYGKEKPAVLGHDEAAFAKNRRAVLVY | not soluble
4 | MKLMDVRVSGLNVWITDKHILKGISFKAQPGTVTAIMGPSGSGKSTLIRVINRLIDLIPGARVEGEVWINNMNVMKEDPYNIRRYTGMVFQEPNPFPHMTIYENVAIGPKLHGLAKNKKELDEIVEWALKMAHLWDEVKDRLSDYPHQLSGGQRQRLSLARALALKPRVLLLDEPTANIDPVSTVKIEQSIVEYAKEEMATVIIVTHTPQQAARISDQILFLYEGRVIEYGPTKELVLRPRHELTKKFLGGEV | soluble
5 | MPDYDLIAILGPTASGKTPFAAALAAELNTEIISADSRQIYRGMDLGTGKDLEDYTINGRQIPYHLIDIADPGYKYNVFEYQRDFLTAYETIKQKGCLPVLCGGTGLYLESVLKGYRLIPVPENQELRVRLAEKSLEELTAILSSYKTLHNSTDVDTVKRAIRAIEIEEYYAKTPIEEREFPQLNSLIIGVDIDRELRREKITRRLKQRLDDGMVEEVRRLLAEGIQPDDLIYYGLEYKYLTLYAIGKMTYDEMFTGLETAIHQFAKRQMTWFRGMERRGFTIHWVDASLPMEEKINFVKQKLKEFLEHHHHHH | soluble
6 | MSLVELQEIFDVSYGSKLDLNKMSSFNPTINFVGRSGKNNGVTASVDLLKNTKPYPAGLLTVALGGSVLSTFLQNKPFYTAQNVAVLNPKTEMTEQQKLFYCAAIFANAYRFSACGREANRTLRQLFVPSLDEIPSWVESVNLNPSAGVTEPKLKESLDLPVVRQSKRLDEIFTIQNGIAATKLKEFEQRQKDTVVYIRPASTQARTLRSYIARDSVDEKHIFPCHTLFTSTNGEGSHTYSYVSTCEFVANSDVAVLTPIQSDMPIEVKLYYAKCITANRYLFSYGRKPKGEKLKSIMLPYFDQQEDFDYICRFIHTLLFSNNLEGHHHHHH | soluble
7 | MSEELPNITTSEKKSFLQSLFSCLFQSEPKNREDLVEVIRDSLENELIDNDTKEMMEGVMEISELRVRDIMIPRPQIVYIDANLPLEACVDLIIESAHSRFPVILDDGKDNIQGMLLAKDLLKYLRSDSAPFDMQKMLRPAVIVPESKRVDRMLKEFRSERFHMAIVVDEFGAVSGLVTIEDILEQIVGDIEDEFDEEEIEPIRQLSRHTYAVSALTDIEKFNAVFATDFVDEEVDTIGGLVMQAFSHLPQRGEQVNLHGIDFKVTSADSRRLIQLRVTVSDEQLEQMERITDLEE | not soluble
8 | MGLSPSAPAVAVQASNASASPPSGCPMHEGKMKGCPVNTEPSGPTCEKKTYSVPAHQERAYEYVECPIRGTAAENKENLDPSNLMPPPNQTPAPDQPFALSTVREESSIPRADSEKKWVYPSEQMFWNAMLKKGWKWKDEDISQKDMYNIIRIHNQNNEQAWKEILKWEALHAAECPCGPSLIRFGGKAKEYSPRARIRSWMGYELPFDRHDWIINRCGTEVRYVIDYYDGGEVNKDYQFTILDVRPALDSLSAVWDRMKVAWWRWTS | soluble
9 | MEDLEHGVASNGLRYGFYRVESESAAICIAARGGSSFEPPGKYGIAHLTEHMIFRGNEYLQDGELDRAVELSGGEANAYTTRELILLCAEFVSDSLARVAEKLFLAVSARRLVEGEFERERAVVEAEVKGLISSPESRIYRLAHASAWGDSHLGRPIEGYPETVANISKADVEEYKASVFSPERMSLAIVGRISRLEALRVVKLFSQLEPGGKVREPETPEPRTTFLREERGIEAAYAALTLPLPPRSGLANVLARLRGVVFNLEAGATSILFKEVREERGLAYGFNVDVHITSWGSSMSLIVLEGNRDRVGELFDAMTRSLERALRGGYPESEWREGRRRLYRFYTRREAISNMERADALSAVILFHEKPFTLEDLVNQTLSSEWSLEEFLRLPRGLALIV | not soluble
10 | MRIYLIGFMCSGKSTVGSLLSRSLNIPFYDVDEEVQKREGLSIPQIFEKKGEAYFRKLEFEVLKDLSEKENVVISTGGGLGANEEALNFMKSRGTTVFIDIPFEVFLERCKDSKERPLLKRPLDEIKNLFEERRKIYSKADIKVKGEKPPEEVVKEILLSLEGNALGG | soluble
11 | MIQRFIELGEGYSDIYELIALAKANRHRLSGFFVFHTVKKGQAVVSLAIVLHPTDPGDFQPLYICREGIPDPSVKPNKRYELFMETAKELGMDVIHLDVKPSTMFAELDLYYQHLIGIMRMNRFIPPLQ | not soluble
12 | MSLDLDRKLIEILDILSKSKEPVGAKIIAKELNKRGYKIGERAVRYHLKLLDGMKLTKKVGYAGRVITERGLEELEKANISYRLGSIYSNILEKTISANYRFGYVVINRCQVYADFNDVLKIIKSVYESGLAVGDRVGIIDREKFVEINTLCSLNFDNILLQNGIFPLHVCAGVVKYEDGKPVEFKEIIDYKSTSIDPLRAFIEKKETDVMGIIENGEGYLPANFRYFGVEFLERFETILEIDELKCIISYGTENVLGLDVGDDKVGVALIGGLTPIAPFVENNYCVEICPMSSIVRLESLHKLKKNPRDIVTKKANIRIKTALSKMFNAMAKVTYDIDEADGDVIVNTAFIDKKYLDEAFDILKEAYKKGLGISDRFGIVEENDRIKIQTICAVTLDGIFLRNSVPLIPKYGGILEITEDKERFIDIIGYDGSSLDPHEVFFNFVDCEKTFLAGFREVHRVAREKLEEVLKKLNWNGIKAIGEPNNELYGIGVNKDMCGVVTMGGINPLVLLKENEIPIELKAMHEVVRFSDLKSYKEIEGHHHHHH | not soluble
13 | MSNKLESYRSEIVSLNHQILDLLSKRGELAQKIGEEKLKQGTRIYDPQREKEMLNDLIDSNKGPFNDNTIKQLFKEIFKASTDLQKSENEKHLYVSRKLKPEDTIVTFDNGGIIGDGNKSFVFGPCSVESFEQVEAVAKNLHAKGEKFIRGGAFKPRTSPYDFQGLGVEGLKILKQIKDKYDLNVVSEIVNPNDFEVADEYLDVFQIGARNMQNFELLKEAGRTKKPILLKRGLSATIEEFVYAAEYIASQGNQNIILCERGIRTYEKATRNTLDISAVPILKQGTHLPVMVDVTHSTGRKDIMLPTAKAALAVGADGVMAEVHPDPSVALSDAGQQMDLDEFQAFYDELKPLADLYNAKKLK | not soluble
14 | MKPSIFRQALCVSAAAVLTTVSHSLTTPTAHAQGGTPGLMEFRWDSDRNYRKLYYFQTSSIENDRSEWYLHLRAKDRKTSIMKLTVTVPDYFDAKLRPERMTLCRTSSGSMTKRTRCLEEVPATIEVNKTQTAIEVYPDTPVPVEGDYSLRIKLFNPQGKRMYQLNALIQAPGDVPMSGYVGSWLIDMD | not soluble
15 | MSATNLAVEQLQRVLLPRRGEPADVRSLYLLEAESNKERLEWEDRFSVSVPAGAEVSFQTYFNAFPASYWRRWSQLDSVVLKLKVSGEARVDLYRSKIDGARIGITGSVVKDDFIEFEVSLAPFEDGGWIWFDLTAETDATVEEAGWYAPHAPKAQIMPDGSEVGPFEARATVGIPTFNRPADAVAALEALASDPAVDAVIDTVIMPDQGNKHPADEPGYKAAVEHFGDRFFEFRQGNLGGSGGYSRIMFEALGGVDGKGEAGAAKSPYILYMDDDIAIEPDSVLRALQVARYAKSPILVGGQMLNLQERSHLHTMGEVVGGHDFMWTAAPHVHYDHDFSAHPLHDRGKFDDKPDAPNSRDLHRRIDVDFNGWWMCMIPRVVAEQIGQPLPLFIKWDDAEYGLRARKAGFPTATWPGIAIWHMAWSDKDDAIDWQAYFHLRNRLVVAAMYHQGSVDGIVRSMQKATFKHLLCLEYSTVAIQNEAMKDFLAGPDQLFSILDTSLPRIAAIRKTYPDAVVLPSATELPRATGAPGVPTKDIGGRLAPIKKAMWLAKGLKHSLSKEDASHHEVPQANFAPIEARWFSLSRVDGATVTTADGRGVVYRKRDRDKAKELGKEARALQKQVAERFDELSRAYRNAHPELVSREAWGKVFDEQ | not soluble
16 | MSLIDFHFHAPVKEFLDFLGEFGEPAIKYFNAKVEVKGLKETLDYYESFGIKRFVVLPIDSTTFLGRRIPNQVINLDDRIVKFISVDPSKPNADEELKRSIKEFEPVGVKLHPQLQGFHPLDERALKIYEIIDNHGLIVVFHTGTSGIGAGVKSSIRLDYGRPIYFDEIAVRFQNMKIILAHFGWPWTEEAIAIALHKPNVYLDLSGWAPRYIPQVIWSNAKRLSDKLLFGSDFPLIRPERWLEEFKSVNLSQDIKDKILKHNAEKLVKKSEGHHHHHH | not soluble
17 | MKTALESLRNASALYNEKLVKLMKSFGMTIAEHRLLLLIESGLDTQEKISLATKLDTSTLSRQLKSAVRKELLDKLATGRDKRQLIYSVTEKGQSDLKGIAAELARIDANVFSDWNQNDRALLDQLLDKLEKSI | not soluble
18 | MEKPIIRGYIRENGSVGVRNYVAVIPVDDLSNSASIGVSKLIRGTVAIPHPYGRLQFGKDLDLLFHVLSGTGANPNVAAAIVIGIEENWANKVADKIAETGKPVEVFPVEGNGDLKVIEKASRKAKEFVQEASEKQRTEVDLSSLVLSIKCGESDTTSGLASNPATGYAVDKLIDYGSTVMFGETSELTGAEDIVASRIQDPVLRDKFMRIYNEYVAFIESQGVDLLGSQPTEGNIKGGLSTIEEKALGNIQKLGTKPITCVLDYLDPLGKGSSRLCFVNTSSAAAEAVTLFAAKGSVLHLFTTGQGNVVGHPIIPVVKISANPKTIATMSEHIDVDVSDLLQLKVSLKEAGERIFNYTIRVANGRLTSAEILQHEEFSPIKLYISA | not soluble
19 | MGSDKIHHHHHHMLDLKQIGASESRQLKQAHDRGQLSHAYLLLSSDEVEALNTAYWLICYVNCTGEKKPDGTCPACRRILAGNHPDVFLIDTEENKQSIAIDQIRPLKQELAKSPLEGDRRYFVINHAQKLTLPAANALLNLLEEPAAPVVTFLIANNGGQILPTIKSRTQIINFSQQAASSKDRLLLANGMSQEEVDQVKSSQEVDQAVKFFYQELREHDSLAIVSAHQLAGLVKKQKQGTKAWEKYVWILLKKWGEKDLEKGDCQEAANFLADLMRVDQMRQSNVGFLNNLDYLALKWQQ | not soluble
